In patent US20070265189A1 (published 2007):

How the values were obtained:
[1] = molecular target: T1, soluble human insulin receptor-immunoglobulin heavy chain chimera (sIR-Fc; Bass et al., 1996) (human, UniProt P06213 28-956, limits assumed); experiment: phage ELISA
T1 construct: extracellular domain; also called soluble IR (Bass construct); not shown: immunoglobulin heavy chain constant domains

[2] = molecular target: T2, Soluble IGF-1R (sIGF-1R), R&D Systems Cat. # 391-GR/CF (UniProt P08069 31-935, limits assumed); experiment: phage ELISA
T2 construct: extracellular domain

YRGMLVLGRSSDGAGKVAFERPARIGQTVFAVNFYDWFV [A6L-0-E6-IR]
IR/IGF-1R comparison [1]: 0.1 | Ratio over Background [1]: 1.8 | IGF-1R/IR comparison [2]: 17 | Ratio over Background [2]: 31

VGRASGFPENFYDWFGRQLSLQSGEQ [H2CA-4-H6-IGFR]
IR/IGF-1R comparison [1]: 0.1 | Ratio over Background [1]: 0.7 | IGF-1R/IR comparison [2]: 14.6 | Ratio over Background [2]: 10.5

GAPVDQLHEDFYDWFVRQVSQAATG [H2CA-2-B2-IGFR]
IR/IGF-1R comparison [1]: 0.3 | Ratio over Background [1]: 1 | IGF-1R/IR comparison [2]: 3.5 | Ratio over Background [2]: 3.4

GFREGSFYDWFQAQVT [E4Dα-2-D11-IR]
IR/IGF-1R comparison [1]: 0.3 | Ratio over Background [1]: 3.3 | IGF-1R/IR comparison [2]: 3.4 | Ratio over Background [2]: 11.1

SQAGSAFYAWFDQVLRTVHSA [20E2Bβ-4-G6-IR]
IR/IGF-1R comparison [1]: 0.3 | Ratio over Background [1]: 1.9 | IGF-1R/IR comparison [2]: 3.3 | Ratio over Background [2]: 6.2

RGAVAGFHDQFYDWFDRQVSRVHKFG [H2CA-4-H9-IGFR]
IGF-1R/IR comparison [2]: 3 | Ratio over Background [2]: 5.6

AICDAGFHEHFYDWFALQVSDCGRQS [H2CA-2-B11-IGFR]
IR/IGF-1R comparison [1]: 0.3 | Ratio over Background [1]: 1.6 | IGF-1R/IR comparison [2]: 3 | Ratio over Background [2]: 4.6

LGYQEPFQQNFYDWFVRQVSGAENAG [H2CA-3-E8-IGFR]
IR/IGF-1R comparison [1]: 0.3 | Ratio over Background [1]: 2.2 | IGF-1R/IR comparison [2]: 2.9 | Ratio over Background [2]: 6.3

EAASLGSQDRNFYDWFVRQVV [A6S-2-D11-IR]
IR/IGF-1R comparison [1]: 0.4 | Ratio over Background [1]: 13.5 | IGF-1R/IR comparison [2]: 2.8 | Ratio over Background [2]: 37.4

VERSASSQDGNFYDWFVVQIR [A6S-2-D1-IR]
IR/IGF-1R comparison [1]: 0.4 | Ratio over Background [1]: 12 | IGF-1R/IR comparison [2]: 2.6 | Ratio over Background [2]: 30.6

TSEVQRRSQDNFYDWFVAQVA [A6S-3-E2-IR]
IR/IGF-1R comparison [1]: 0.4 | Ratio over Background [1]: 9.8 | IGF-1R/IR comparison [2]: 2.5 | Ratio over Background [2]: 24.7

HLADGQFHEKFYDWFERQISSRCNDC [H2CA-3-E11-IGFR]
IR/IGF-1R comparison [1]: 0.5 | Ratio over Background [1]: 1 | IGF-1R/IR comparison [2]: 2.2 | Ratio over Background [2]: 2.2

FRTLAAQHDSFYDWFDRQVSGAAGER [H2CA-3-C11-IGFR]
IR/IGF-1R comparison [1]: 0.5 | Ratio over Background [1]: 1.6 | IGF-1R/IR comparison [2]: 2.1 | Ratio over Background [2]: 3.3

TFYSCLASLLTGTPQPNRGPWERCR [20C-3-G3-IGFR]
IR/IGF-1R comparison [1]: < 0.1 | Ratio over Background [1]: 1.2 | IGF-1R/IR comparison [2]: 27 | Ratio over Background [2]: 32.3

FFYDCLAALLQGVARYHDLCAVEIT [20C-4-C7-IGFR]
IR/IGF-1R comparison [1]: < 0.1 | Ratio over Background [1]: 1.3 | IGF-1R/IR comparison [2]: 21.8 | Ratio over Background [2]: 28

CCTTEMVVMDARDDPFYHKLSELVTGG [B6Hα-1-B5-IR]
IR/IGF-1R comparison [1]: 0 | Ratio over Background [1]: 1 | IGF-1R/IR comparison [2]: 20.5 | Ratio over Background [2]: 20.5

RGQSDAFYSGLWALIGLSDG [R20β-4-A6-IR]
IR/IGF-1R comparison [1]: 0.1 | Ratio over Background [1]: 1.5 | IGF-1R/IR comparison [2]: 17.3 | Ratio over Background [2]: 25.9

GVRAMSFYDALVSVLGLGPSG [20E2B-1-A6-IGFR]
IR/IGF-1R comparison [1]: 0.1 | Ratio over Background [1]: 1.1 | IGF-1R/IR comparison [2]: 16.8 | Ratio over Background [2]: 18.1

RLFYCGIQALGANLGYSGCV [R20α-4-20A12-IR]
IR/IGF-1R comparison [1]: 0.1 | Ratio over Background [1]: 2.4 | IGF-1R/IR comparison [2]: 16.6 | Ratio over Background [2]: 39.9

LQPCSGFYECIERLIGVKLSG [20E2Bβ-4-G7-IR]
IR/IGF-1R comparison [1]: 0.1 | Ratio over Background [1]: 1.6 | IGF-1R/IR comparison [2]: 15.8 | Ratio over Background [2]: 25.2

LKDGFYDYFWQRLHLGS [NNRPγ-4-B11-IR]
IR/IGF-1R comparison [1]: 0.1 | Ratio over Background [1]: 1.2 | IGF-1R/IR comparison [2]: 15.5 | Ratio over Background [2]: 18.7

YRGMLVLGRISGGAGKAASERPARIGQKVSAVNFYDWFV [A6L-0-H3-IR]
IGF-1R/IR comparison [2]: 13 | Ratio over Background [2]: 26

VEGRGLFYDLLRQLLARRQNG [20E2B-3-C6-IGFR]
IR/IGF-1R comparison [1]: 0.1 | Ratio over Background [1]: 1.1 | IGF-1R/IR comparison [2]: 14.8 | Ratio over Background [2]: 16.8

RGCNDDGGKGWSDDPFYHKLSELICGG [B6Hα-1-A2-IR]
IR/IGF-1R comparison [1]: 0.1 | Ratio over Background [1]: 1 | IGF-1R/IR comparison [2]: 14.6 | Ratio over Background [2]: 14.6

QGGSASFYDAIDRLLRMRIGG [20E2A-4-F11-IGFR]
IR/IGF-1R comparison [1]: 0.1 | Ratio over Background [1]: 1.3 | IGF-1R/IR comparison [2]: 14.6 | Ratio over Background [2]: 18.8

RCEEKQAEVGPSSDPFYHKMSELLGCR [B6Hα-3-E9-IR]
IR/IGF-1R comparison [1]: 0.1 | Ratio over Background [1]: 1.7 | IGF-1R/IR comparison [2]: 14.2 | Ratio over Background [2]: 24.2

DRDFCRFYERLTALVGGQVDGGWPC [20C-3-F6-IGFR]
IR/IGF-1R comparison [1]: 0.1 | Ratio over Background [1]: 1.9 | IGF-1R/IR comparison [2]: 14.1 | Ratio over Background [2]: 26.1

KLHNLMFYYGLQRLVWGAGLG [20E2B-4-H3-IGFR]
IR/IGF-1R comparison [1]: 0.1 | Ratio over Background [1]: 1.1 | IGF-1R/IR comparison [2]: 13.9 | Ratio over Background [2]: 14.8

GNGDGMFYQLLSLLVGRDMHV [20E2B-3-02-IGFR]
IR/IGF-1R comparison [1]: 0.1 | Ratio over Background [1]: 0.6 | IGF-1R/IR comparison [2]: 13.8 | Ratio over Background [2]: 8.9

SSYGCDGFYLMLFSLGLVASQELEC [20C-3-A1-IGFR]
IR/IGF-1R comparison [1]: 0.1 | Ratio over Background [1]: 1.5 | IGF-1R/IR comparison [2]: 13.7 | Ratio over Background [2]: 20.8

PDLHKGFYAQLAQLIRGQLLS [20E2B-3-E3-IGFR]
IR/IGF-1R comparison [1]: 0.1 | Ratio over Background [1]: 1.3 | IGF-1R/IR comparison [2]: 13.1 | Ratio over Background [2]: 16.3

FYDAIDQLVRGSARAGGTRD [R20α-3-20E2-IR]
IR/IGF-1R comparison [1]: 0.1 | Ratio over Background [1]: 3.1 | IGF-1R/IR comparison [2]: 12.9 | Ratio over Background [2]: 39.9

VGYQGQGDENFYDWFIRQVSGRLGVQ [H2CA-4-F5-IGFR]
IR/IGF-1R comparison [1]: 0.1 | Ratio over Background [1]: 0.8 | IGF-1R/IR comparison [2]: 12.3 | Ratio over Background [2]: 9.7

YSCGDGFYSLLSDLLGGQFRC [20E2B-4-H12-IGFR]
IR/IGF-1R comparison [1]: 0.1 | Ratio over Background [1]: 0.8 | IGF-1R/IR comparison [2]: 12.8 | Ratio over Background [2]: 9.7

RGMKEEVLVGGSTDPFYHKLSELLQGS [B6Hα-3-F11-IR]
IR/IGF-1R comparison [1]: 0.1 | Ratio over Background [1]: 1.6 | IGF-1R/IR comparison [2]: 11.7 | Ratio over Background [2]: 18.7

IQQELTFYDLLHRLVRSELGS [20E2B-3-D2-IGFR]
IR/IGF-1R comparison [1]: 0.1 | Ratio over Background [1]: 1.1 | IGF-1R/IR comparison [2]: 11.7 | Ratio over Background [2]: 12.4

GGTEVDFYRALERLVRGQLGL [20E2B-3-D8-IGFR]
IR/IGF-1R comparison [1]: 0.1 | Ratio over Background [1]: 1.6 | IGF-1R/IR comparison [2]: 11.3 | Ratio over Background [2]: 17.7

LRIANLFYQRLWDLAFGGGG [20E2B-3-E8-IGFR]
IR/IGF-1R comparison [1]: 0.1 | Ratio over Background [1]: 1.5 | IGF-1R/IR comparison [2]: 11.1 | Ratio over Background [2]: 16.7

DRAFYNGLRDLVGAVYGAWD [R20α-4-20C11-IR]
IR/IGF-1R comparison [1]: 0.1 | Ratio over Background [1]: 3 | IGF-1R/IR comparison [2]: 10.3 | Ratio over Background [2]: 30.8

PVGVQGFYEGLSRLVLGRGGW [20E2B-4-F8-IGFR]
IR/IGF-1R comparison [1]: 0.1 | Ratio over Background [1]: 0.8 | IGF-1R/IR comparison [2]: 9.7 | Ratio over Background [2]: 7.3
